Bridge positions count the residues as written; N and C are the ends. Square brackets hold non-standard residues; d marks the D form. Primed or numbered codes have the meaning given here. Glu(Bi-PEG)″ = Nδ-(N-biotinyl-3-(2-(2-(3-aminopropyloxy)-ethoxy)-ethoxypropyl)-L-glutamine, biotin-PEG linker residue; Glu(Bi-PEG) = N-terminal added Glu carrying a biotin-linker; Glu(Bi-PEG)(3) = N-terminal added Glu biotin-linker residue; Gla = N[C@@H](CC(C(=O)O)C(=O)O)C(=O)O
T1: Bi-SEQ ID NO: 4, *H**Glu(Bi-PEG)*…laTCSYEEA*NH2 (disulfide 6-11)
T1 construct: Synthetic peptide; 12-27 of mature prothrombin with Gla at 20
T1 peptide: {Glu(Bi-PEG)(3)}-NLERECVE[Gla]TCSYEEA-NH2

T2: Bi-SEQ ID NO: 3, *H**Glu(Bi-PEG)*…laEA*NH2 (disulfide 6-11; not fully specified)
T2 construct: Synthetic peptide; 12-27 of mature prothrombin with Gla at 25
T2 peptide: {Glu(Bi-PEG)″}-NLERECVEETCSY[Gla]EA-NH2

T3: Bi-SEQ ID NO: 1, *H**Glu(Bi-PEG)*NLERECVEETCSYEEA*NH2 (disulfide 6-11 (inferred))
T3 construct: Synthetic peptide
T3 peptide: {Glu(Bi-PEG)}-NLERECVEETCSYEEA-NH2


Experiments:
Experiment in all cases: ECL assay (Elecsys 2010), ruthenylated antibody and biotinylated peptide, streptavidin beads
[1] = biological target: T1, Bi-SEQ ID NO: 4, …
Protocol: (§1) An Elecsys 2010 immunoanalyzer was used to determine the reactivity of selected anti-PIVKA-II antibodies with the above peptide as follows:
(§2) 50 μL of ruthenylated anti-PIVKA-II antibody (300 ng/mL in assay buffer—s. example 2.4) were reacted with 50 μL of biotinylated peptide (2.5 ng/mL in assay buffer) and 70 μL assay-buffer in a first step, and incubated at 37° C. for 9 min. After addition of 30 μL streptavidin coated paramagnetic Elecsys® beads (0.7 mg/mL; see example 2.4) and a second incubation step (37° C., 9 min), the reaction mixture was aspirated into the measuring cell where the microparticles are magnetically captured onto the surface of the measuring-electrode. Unbound substances are removed with ProCell system-buffer (Roche Diagnostics GmbH, Germany). Application of a voltage to the electrode then induces electrochemiluminescense-based emission of light which is measured by a photomultiplier.

[2] = biological target: T2, Bi-SEQ ID NO: 3, …
Protocol: as §1, §2

[3] = biological target: T3, Bi-SEQ ID NO: 1, …
Protocol: as §1, §2

[4] = biological target: Bi-SEQ ID NO: 2, *H**Glu(Bi-PEG)*NLERECVGlaETCSYEEA*NH2

| reactivity (signal normalized to Bi-SEQ ID NO:1) [1] | reactivity (signal normalized to Bi-SEQ ID NO:1) [2] | reactivity (signal normalized to Bi-SEQ ID NO:1) [3] | reactivity (signal normalized to Bi-SEQ ID NO:1) [4] | Binder |
| --- | --- | --- | --- | --- |
| 78% | 107% | 100% | 5% | monoclonal anti-PIVKA-II antibody 9A6 (antibody, V domains shown, Recombinant rabbit IgG from B-cell cloning, expressed in HEK cells) VH: QSVEESGGRLITPGTPLTLTCTVSGFDLSRYAVGWVRQAPGKGLEYIGLIVSDGRTYYASWAKGRFTVSKTSSTTVDLKMTSPTAGDTATYYCYRNVSLWGQGTLVSVSS VL: DVVMTQTPSSVEAAVGGTVTIKCQASQSIGSNLAWYQQKPGQPPKLLIYSASTLASGVPSRFSGSGSGTEFTLTFSGVQCGDAATYFCQSYAGVSANIFYYSFGGGTEVVVM |
| 68% | 107% | 100% | 5% | monoclonal anti-PIVKA-II antibody 13H7 (antibody, V domains shown, Recombinant rabbit IgG from B-cell cloning, expressed in HEK cells) VH: QSVEESGGRLVTPETPLTLTCTVSGFDLSRYAMGWVRQAPGKGLEYIGLIVSDGRTYYASWAKGRFTISKTSSTTVDLKMASPTTEDTATYYCYRNVSLWGQGTLVSVSE VL: DVVMTQTPSSVEAAVGGTVTIKCQASQSIGSNLAWYQQKPGQPPKLLIYSASTLASGVSSRFKGSGSGTEFTLTISDLECADAATYYCQSYAGISANIFYYAFGGGTEVVVM |
| 76% | 108% | 100% | 5% | monoclonal anti-PIVKA-II antibody 4E8 (antibody, V domains shown, Recombinant rabbit IgG from B-cell cloning, expressed in HEK cells) VH: QSVEESGGRLVTPGTPLTLTCTVSGFDLSRYAVGWVRQAPGKGLEYIGLITSDGRTYYANWAKGRFTVSKTSSTTVDLKMTSPTTEDTATYYCYRNVSLWGQGTLVSVSS VL: DVVMTQTPASVEAAVGGTVTIKCQASQSIGSNLAWYQQKSGQPPKLLIYSASTLAPGVSSRFSGSGSGTEFTLTFTGVQCGDAATYFCQSYAGVSANIFYYSFGGGTEVVVM |
| 68% | 105% | 100% | 4% | monoclonal anti-PIVKA-II antibody 7A10 (antibody, V domains shown, Recombinant rabbit IgG from B-cell cloning, expressed in HEK cells) VH: QSLEESGGRLVTPGTPLTLTCTVSGIDLSTYAMGWVRQAPGKGLEYIGIIRSSGRTYYASWAKGRFTVSKTSSTTVDLSMTSPTTEDTATYYCYRNVSLWGQGTLVSVSS VL: DVVMTQTPSSVEAAVGGTVTIKCQASQSIGNNLAWYQQKPGQRPNLLIYSASTLASGVPSRFRGSGSGTEFTLTISGVQCDDAATYYCQSYAGVSESVFWYSFGGGTGVVVK |

Source: patent US20230055005A1 (ROCHE DIAGNOSTICS OPERATIONS, published 2023)
